In this test the target is human CD47 antigen (human) (UniProt Q08722). Put plainly: flow cytometry on human red blood cells at the maximal binding concentration; reference Hu5F9. In general terms: A flow cytometer gives signals particle by particle.

For anti-CD47 IgG4 AO-176 (antibody), the percent reduction of RBC binding with respect to Hu5F9 turned out to be 80%.

For the origin of these results see patent US20210221886A1.
